Reference: patent US7354728B2, “Coactivation of nuclear receptors” (N.V. Organon, priority 2000, dated 2008)

Key:
[1] = molecular target: glucocorticoid receptor, expressed from pNGV1.GR in U-2 OS cells (human) (UniProt P04150); assay: cell-based or functional assay
[2] = molecular target: human estrogen receptor β, expressed from pNGV1.ERβ in U-2 OS cells (human) (UniProt Q92731); assay: cell-based or functional assay
[3] = molecular target: progesterone receptor, expressed from pKCRE.PR in U-2 OS cells; assay: cell-based or functional assay
ERβ = molecular target: T1, ERβ (Homo sapiens, UniProt Q92731); assay: Transient transfection of U-2 OS cells with ERβ and ERE luciferase reporter, with or without COASTER; type: cell-based; conditions: 10^−8 M ligand, ± SD triplicate
T1 construct: expressed in transfected cells; host or cells: U-2 OS
T1 sequence (Q92731 whole entry): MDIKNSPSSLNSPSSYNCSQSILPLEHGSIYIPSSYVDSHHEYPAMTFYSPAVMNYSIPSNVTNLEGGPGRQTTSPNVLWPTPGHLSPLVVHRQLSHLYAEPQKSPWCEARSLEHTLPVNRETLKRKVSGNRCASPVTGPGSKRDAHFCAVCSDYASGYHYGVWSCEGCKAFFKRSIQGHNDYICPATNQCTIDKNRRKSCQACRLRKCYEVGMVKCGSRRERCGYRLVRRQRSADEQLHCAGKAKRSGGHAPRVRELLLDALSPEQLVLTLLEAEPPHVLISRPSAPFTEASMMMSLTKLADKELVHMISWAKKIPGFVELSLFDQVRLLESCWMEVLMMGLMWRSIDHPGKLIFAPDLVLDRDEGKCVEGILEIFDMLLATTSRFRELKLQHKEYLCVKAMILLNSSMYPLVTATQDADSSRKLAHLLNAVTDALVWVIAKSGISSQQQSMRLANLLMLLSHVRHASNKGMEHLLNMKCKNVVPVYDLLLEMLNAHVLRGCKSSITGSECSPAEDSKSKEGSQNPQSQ
Method: (§1) To test the functional role of COASTER in a mammalian setting, the full length COASTER (amino acids 1-1013) cDNA was cloned in a mammalian cell expression vector. The functional role of COASTER was analyzed by cotransfection of U-2 OS cells with the COASTER expression plasmid in combination with a steroid receptor expressing plasmid, and a plasmid containing a luciferase reporter gene under control of a hormone responsive element. Following transfection, cells were stimulated with the appropriate hormone for the receptor under study.
(§2) U-2 OS cells were transiently transfected with pNGV1.ERβ and p4ERE-TATA-LUC (1), pNGV1.ERα and p4ERE-TATA-LUC (2), pKCRE.PR and pMMTV-LUC (3) or pNGV1.GR and pMMTV-LUC (4). Where indicated, COASTER expression construct pCDNA3.1HISC.COASTER was added to the transfection mixture. Following transfection, cell were incubated with the hormones indicated in the top row. […] Org 2058=16α-ethyl-21-hydroxy-19-norpregn-4-ene-3,20-dione.
(§3) Initially, a plasmid encoding a truncated form of COASTER (pACT2.COASTERΔ, amino acids 1-234) was isolated in the yeast two hybrid screen. […] The 5′ end of the COASTER (amino acid 1 to 332) was amplified by PCR on human-testis Marathon Ready cDNA (Clontech, Palo Alto, USA, cat.#7414-1) using primers […] […]

ERβ and COASTER = ERβ and COASTER (Homo sapiens, UniProt Q92731); assay: Yeast two-hybrid assay, β-galactosidase reporter, ERβ with COASTER amino acids 1-234; type: cell-based; conditions: yeast AH109, pGBT9.ERβ + pACT2.COASTERΔ; 10^−8 M 17β-estradiol, 10^−5 M raloxifen
Chain of ERβ and COASTER (Q92731 whole entry, the tested form may be a part): as the sequence (Q92731 whole entry) above

[4] = molecular target: progesterone receptor (PR) (Homo sapiens, UniProt P06401); assay: Transient transfection of U-2 OS cells with PR and pMMTV-LUC reporter, with or without COASTER; type: cell-based; conditions: 10^−8 M ligand, ± SD triplicate
Chain of progesterone receptor (PR) (P06401 whole entry, species assumed): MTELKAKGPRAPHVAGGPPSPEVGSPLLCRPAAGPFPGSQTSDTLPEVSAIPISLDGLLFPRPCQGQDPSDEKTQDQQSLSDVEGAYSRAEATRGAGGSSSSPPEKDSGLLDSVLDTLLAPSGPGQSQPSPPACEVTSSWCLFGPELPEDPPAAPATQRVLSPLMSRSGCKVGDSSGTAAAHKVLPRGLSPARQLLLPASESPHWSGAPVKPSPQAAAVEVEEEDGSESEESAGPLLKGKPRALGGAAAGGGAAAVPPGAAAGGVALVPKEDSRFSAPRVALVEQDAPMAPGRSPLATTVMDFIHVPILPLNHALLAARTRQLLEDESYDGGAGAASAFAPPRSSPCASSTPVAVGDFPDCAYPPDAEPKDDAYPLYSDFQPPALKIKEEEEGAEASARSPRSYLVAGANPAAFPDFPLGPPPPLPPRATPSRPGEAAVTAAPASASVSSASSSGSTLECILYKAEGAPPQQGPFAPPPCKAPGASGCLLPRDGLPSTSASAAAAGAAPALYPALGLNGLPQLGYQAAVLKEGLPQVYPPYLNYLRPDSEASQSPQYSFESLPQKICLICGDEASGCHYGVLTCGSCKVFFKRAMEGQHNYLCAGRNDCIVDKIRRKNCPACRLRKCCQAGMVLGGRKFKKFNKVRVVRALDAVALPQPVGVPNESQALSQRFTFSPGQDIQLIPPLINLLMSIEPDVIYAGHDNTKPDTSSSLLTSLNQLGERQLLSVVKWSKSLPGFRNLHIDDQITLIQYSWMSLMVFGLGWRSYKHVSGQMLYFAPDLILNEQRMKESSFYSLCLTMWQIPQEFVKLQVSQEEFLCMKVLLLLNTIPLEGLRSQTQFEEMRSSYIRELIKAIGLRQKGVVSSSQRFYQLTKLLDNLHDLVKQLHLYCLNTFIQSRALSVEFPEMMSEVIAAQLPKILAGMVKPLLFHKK
Method: as §1, §2, §3

Chain of human estrogen receptor β, expressed from pNGV1.ERβ in U-2 OS cells (human) (Q92731 whole entry): as the sequence (Q92731 whole entry) above
Chain of glucocorticoid receptor, expressed from pNGV1.GR in U-2 OS cells (human) (P04150 whole entry): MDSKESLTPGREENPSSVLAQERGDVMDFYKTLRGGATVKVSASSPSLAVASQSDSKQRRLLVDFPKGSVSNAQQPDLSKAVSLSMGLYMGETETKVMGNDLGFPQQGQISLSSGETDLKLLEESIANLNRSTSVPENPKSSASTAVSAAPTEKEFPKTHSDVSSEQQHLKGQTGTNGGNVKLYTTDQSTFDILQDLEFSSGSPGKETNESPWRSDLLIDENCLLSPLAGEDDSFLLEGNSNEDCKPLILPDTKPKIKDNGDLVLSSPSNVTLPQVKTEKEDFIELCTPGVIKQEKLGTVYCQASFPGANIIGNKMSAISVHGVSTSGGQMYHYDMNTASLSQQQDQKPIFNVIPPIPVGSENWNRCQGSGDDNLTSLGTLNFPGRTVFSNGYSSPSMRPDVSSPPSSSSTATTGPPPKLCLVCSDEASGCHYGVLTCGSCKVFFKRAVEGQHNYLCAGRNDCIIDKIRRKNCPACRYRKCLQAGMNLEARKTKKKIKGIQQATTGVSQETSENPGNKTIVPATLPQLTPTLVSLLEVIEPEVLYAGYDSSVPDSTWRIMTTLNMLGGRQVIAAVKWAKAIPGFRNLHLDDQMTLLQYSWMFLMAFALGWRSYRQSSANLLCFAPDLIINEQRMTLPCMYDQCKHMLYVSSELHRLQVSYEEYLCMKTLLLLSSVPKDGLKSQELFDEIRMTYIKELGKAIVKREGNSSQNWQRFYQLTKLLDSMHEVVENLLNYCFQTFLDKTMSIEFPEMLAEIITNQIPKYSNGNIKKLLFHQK

## full length COASTER (amino acids 1-1013), expressed from pCDNA3.1HISC.COASTER (from UniProt Q9Y4E5 1-1013)
[1]
  luciferase activity, pMMTV-LUC in U-2 OS cells, 10^-8 M Dexamethasone (luciferase activity): 35200
  luciferase activity, pMMTV-LUC in U-2 OS cells, no hormone (luciferase activity): 103
[2]
  luciferase activity, p4ERE-TATA-LUC in U-2 OS cells, 10^-8 M 17β-estradiol (luciferase activity): 8200
  luciferase activity, p4ERE-TATA-LUC in U-2 OS cells, 10^-8 M ICI 164,384 (luciferase activity): 101
  luciferase activity, p4ERE-TATA-LUC in U-2 OS cells, no hormone (luciferase activity): 133
[3]
  luciferase activity, pMMTV-LUC in U-2 OS cells, 10^-8 M Org 2058 (luciferase activity): 3230
  luciferase activity, pMMTV-LUC in U-2 OS cells, no hormone (luciferase activity): 81

## O=C(c1ccc(OCCN2CCCCC2)cc1)c1c(-c2ccc(O)cc2)sc2cc(O)ccc12 [raloxifen]
ERα/β chimera
  signalling via the ERα/β chimera: able to signal

## C[C@]12CC[C@@H]3c4ccc(O)cc4CC[C@H]3[C@@H]1CC[C@@H]2O [17β-estradiol]
ERβ; pNGV1.ERβ + p4ERE-TATA-LUC + COASTER
  luciferase activity: 8200 ± 819
ERβ; pNGV1.ERβ + p4ERE-TATA-LUC, no COASTER
  luciferase activity: 500 ± 109
ERβ and COASTER
  β-galactosidase reporter activity (ERβ-COASTER interaction, FIG. 3): dose-dependent induction
ERα/β chimera
  signalling via the ERα/β chimera: able to signal

## CC[C@@H]1C[C@H]2[C@@H]3CCC4=CC(=O)CC[C@@H]4[C@H]3CC[C@]2(C)[C@H]1C(=O)CO [Org 2058, 16α-ethyl-21-hydroxy-19-norpregn-4-ene-3,20-dione]
[4]; pKCRE.PR + pMMTV-LUC + COASTER
  luciferase activity: 3229 ± 683
[4]; pKCRE.PR + pMMTV-LUC, no COASTER
  luciferase activity: 822 ± 112
